Test results published in paper PMC6310021 (Science translational medicine, 2018).
Like-named read-outs stand apart in the source and are kept apart here.

B1: 125I-labeled MT-2 (natural protein)
chain: not shown
modifications: 125I label (site not stated)
B2: 6×His tag MT-2 recombinant protein (rat metallothionein-2) (natural protein)
chain: not shown

Assays:
[1] = molecular target: transgelin-2 (TG2) of rat airway smooth muscle cells (rat (endogenous in rat ASMCs), UniProt Q5XFX0 1-199); experiment: radioligand binding
Sequence of transgelin-2 (TG2) of rat airway smooth muscle cells (Q5XFX0 whole entry): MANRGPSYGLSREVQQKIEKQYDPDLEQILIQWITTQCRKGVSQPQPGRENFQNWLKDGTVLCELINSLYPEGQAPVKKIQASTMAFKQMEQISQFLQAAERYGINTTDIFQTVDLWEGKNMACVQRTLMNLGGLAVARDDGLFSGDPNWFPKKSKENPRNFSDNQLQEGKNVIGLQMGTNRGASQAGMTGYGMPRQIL

[2] = molecular target: T1, purified rat recombinant TG2 protein (transgelin-2) (rat, UniProt Q5XFX0 1-199); experiment: SPR
T1 sequence (Q5XFX0 whole entry): as above

[3] = molecular target: T1, purified rat recombinant TG2 protein …; experiment: SPR; remark: listed apart in the source

| Binder | Kd [1] [nM] | Kd [2] [nM] | Kd [3] [nM] |
| --- | --- | --- | --- |
| B1 | 33.4 |  |  |
| B2 |  | 110 | 442 |
